Reference: patent US20220363754A1 (SHANGHAI JUNSHI BIOSCIENCES, published 2022)
Where a chain is given by its changes, count along the chain named. Blank lines part the entries; values can stand above or below the binder they belong to.

Assays:
[1] = biological target: T1, recombinant protein hTIGIT-ECD-mFC (human; mouse, UniProt Q495A1 24-155); experiment: ELISA, 0.5 ug/mL human TIGIT-ECD-mFc coated on the plate, detection with anti-IgG4-HRP, OD 450 nm; unit taken from the axis Log:ng/mL
T1 construct: range 24-155; Expressed in 293E cells; also called human TIGIT-ECD-mFc; not shown: murine IgG2a Fc domain of the vector MX2-mFc
T1 sequence (looked up): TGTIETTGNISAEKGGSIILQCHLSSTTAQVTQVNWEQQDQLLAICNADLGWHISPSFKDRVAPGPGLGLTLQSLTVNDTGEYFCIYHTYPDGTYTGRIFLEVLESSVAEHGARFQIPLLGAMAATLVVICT

[2] = biological target: T1, recombinant protein hTIGIT-ECD-mFC; experiment: as above; remark: listed apart in the source
[3] = biological target: T1, recombinant protein hTIGIT-ECD-mFC; experiment: as above; remark: listed apart in the source
[4] = biological target: T1, recombinant protein hTIGIT-ECD-mFC; experiment: as above; remark: listed apart in the source
[5] = biological target: T2, human TIGIT on Jurkat reporter cells (Jurkat/NFAT-Luc/hPD-1-hTIGIT) (human, UniProt Q495A1 22-244); experiment: cell-based or functional assay
T2 sequence (looked up): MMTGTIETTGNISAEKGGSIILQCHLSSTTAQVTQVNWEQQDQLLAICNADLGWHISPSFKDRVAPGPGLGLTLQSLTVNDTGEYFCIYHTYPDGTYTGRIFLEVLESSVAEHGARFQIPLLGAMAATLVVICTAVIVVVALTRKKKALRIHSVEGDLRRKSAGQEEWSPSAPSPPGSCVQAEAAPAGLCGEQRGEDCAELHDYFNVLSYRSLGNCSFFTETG

[6] = biological target: T1, recombinant protein hTIGIT-ECD-mFC; experiment: ELISA, human TIGIT-ECD-mFc coated at 0.5 ug/mL, anti-IgG4-HRP
Experimental: (§1) The solution in wells was then discarded, and the wells were washed 3 times with a washing buffer and blocked for 60 minutes with PBS containing 2% BSA. After the plate was washed 3 times with the washing buffer, humanized antibody dilutions at different concentrations were added. The antibodies were incubated at 37° C. for 60 minutes, and then the plate was washed 3 times with the washing buffer and added with 5000-fold diluted anti-IgG4-HRP. The system was incubated at 37° C. for 30 minutes, and then washed three times with the washing buffer and added with 100 μL of TMB substrate for color development. The system was incubated at room temperature for 30 minutes, and the reaction was then terminated with 100 μL of 2 M hydrochloric acid solution. The absorbance at 450 nm was measured by a plate reader.

[7] = biological target: T2, human TIGIT on Jurkat reporter cells …; experiment: cell-based or functional assay; remark: listed apart in the source
[8] = biological target: T1, recombinant protein hTIGIT-ECD-mFC; experiment: ELISA, human TIGIT-ECD-mFc coated at 1 ug/mL, anti-IgG4-HRP
Experimental: as §1, with “chimeric” for “humanized”

hTIGIT-Fc = biological target: T3, hTIGIT-Fc (human, UniProt Q495A1 24-155); experiment: SPR (Biacore T200), antibody captured by anti-human Fc, antigen in solution, 1:1 model
T3 construct: range 24-155; also called human TIGIT; not shown: Fc part of the Biacore antigen is not described (possibly the murine IgG2a Fc of hTIGIT-ECD-mFC)
T3 sequence (looked up): T1 sequence (looked up)
Experimental: (§2) An S series CM5 chip (GE) was first loaded onto the instrument, and 40 μg/mL of goat anti-human Fc fragment antibody (Jackson ImmuneResearch) dissolved in sodium acetate-acetic acid buffer (pH 5.0) was ready to be coupled to the chip surface. The buffer used for the detection of antibody-antigen binding was HBS-EP+ from GE Healthcare. The antibodies hu3 and hu20 were each diluted to 8 μg/mL and captured on the chip surface. […] The resulting data were analyzed with a 1:1 binding model by using Biacore T200 Evaluation Software 3.0.

Cyno TIGIT-Fc = biological target: T4, Cyno TIGIT-Fc (cynomolgus monkey, UniProt A0A7N9I9V4 89-209); experiment: as above
T4 construct: extracellular domain; the whole named entry is XP 015300912.1; also called cynomolgus monkey TIGIT; cynoTIGIT-ECD; not shown: Fc part is not described
Experimental: as §2

[9] = biological target: T5, hTIGIT (FACS blocking assay of Example 10) (human, UniProt Q495A1 22-141, limits assumed); experiment: competitive FACS, antibody titrated from 30 ug/mL in 3-fold steps, blocking of the binding of hTIGIT to its ligand hPVR on the cell surface, MFI; unit taken from the axis Log[concentration] ng/mL
T5 construct: The protocol names only PVR-mFC and 293F-hPVR cells; which of them should be TIGIT cannot be told
T5 sequence (looked up): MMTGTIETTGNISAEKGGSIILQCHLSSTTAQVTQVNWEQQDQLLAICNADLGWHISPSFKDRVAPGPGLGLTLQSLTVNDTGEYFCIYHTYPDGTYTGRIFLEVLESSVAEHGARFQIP
Experimental: Briefly, antibody dilutions at different concentrations (an initial concentration of 30 μg/mL, 3-fold titration) were each mixed with PVR-mFC (1 ug/mL, 50 μL) and incubated for 30 minutes at room temperature. The mixture was then incubated with cell suspension (stable 293F-hPVR cell line, 2.5×10⁴ cells/well) for 15 minutes at 37° C. After 3 times of elution with PBS, 100 μL of goat anti-human IgG-PE antibody was added, and the system was incubated for 30 minutes in the dark. After 3 times of elution with PBS, detection was performed by FACS. Viable cells were gated on the basis of FSC/SSC, and their geometric mean fluorescence intensity was measured.

T4 sequence (A0A7N9I9V4 entry or part of it): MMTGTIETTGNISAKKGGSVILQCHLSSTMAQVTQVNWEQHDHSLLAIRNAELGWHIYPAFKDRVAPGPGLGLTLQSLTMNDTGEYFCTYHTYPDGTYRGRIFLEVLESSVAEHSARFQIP

B1: etigilimab (antibody, V domains shown)
VH: QVQLQESGPGLVKPSETLSLTCAVSGYSITSDYAWNWIRQPPGKGLEWIGYISYSGSTSYNPSLRSRVTISRDTSKNQFFLKLSSVTAADTAVYYCARRQVGLGFAYWGQGTLVTVSS
VL: DIQMTQSPSSLSASVGDRVTITCKASQDVSTAVAWYQQKPGKAPKLLIYSASYRYTGVPSRFSGSGSGTDFTFTISSLQPEDIATYYCQQHYSTPWTFGQGTKVEIK
- EC50 [1]: 0.0362 µg/mL
- EC50 [2]: 0.0262 µg/mL
- EC50 [3]: 0.0275 µg/mL
- EC50 [4]: 0.0194 µg/mL

B3: humanized antibody hu69 (antibody, V domains shown)
VH: QVQLVQSGAEVKKPGASVKVSCKASGYTFTNYWILWIRQAPGQGLEWMGDIYPGGHYTNYNEKFQGRVTLTADTSSSTAYMELSRLRSDDTAVYYCTRYYGPYAMDYWGQGTLVTVSS
VL: DIVMTQSPLSLPVTPGEPASISCRSSQSLLYNSNQKNYLAWYLQKPGQSPQLLIYWASTGESGVPDRFSGSGSGTDFTLKISRVEAEDVGVYYCQQYYSYPFTFGQGTKLEIK
notes: Humanized from 23O20; detected with anti-IgG4-HRP in the ELISA, constant regions not otherwise stated
- EC50, luciferase reporter gene experiment (T cell activation) [5]: 0.103 µg/mL
- EC50 [6]: 0.0107 µg/mL

B4: humanized antibody hu81 (antibody, V domains shown)
VH: B3 VH with F64L, S84R, R85S
VL: B3 VL with L110V
notes: as for B3
- EC50, luciferase reporter gene experiment (T cell activation) [5]: 0.0884 µg/mL
- EC50 [6]: 0.00983 µg/mL

B6: chimeric antibody ch1 (antibody, human IgG4, V domains shown)
VH: EVQLQQSGPELVKPGASVKISCKTSGYAFTEYTMHWVKQSHGKSLEWIGGINPNTGGTTYNQKFKGKATLTVDKSSSTAYMEFRSLTSEDSAVYYCAKLLRLMYYFDYWGQGTTLTVSS
VL: DIVMTQSHKFMSTSVGDRVSITCKASQDVRTAVAWYQQKPGQSPKLLIYSASYRYTGVPDRFTGSGSGTDFTFTISSVQAEDLALYYCHQHYITPWTFGGGTKLEIK
notes: IgG4 chimeric antibody; also called 2O18-ch-HC / 2O18-ch-LC
- EC50 [8]: 0.0325 µg/mL
- EC50, luciferase reporter gene experiment (T cell activation) [5]: 0.0766 µg/mL

B9: chimeric antibody ch4 (antibody, human IgG4, V domains shown)
VH: QVQLQQSGDELVRPGTSVKVSCQAAGYTFTNYWILWIKQRPRHGLEWIGDIYPGGHYTNYNEKFKGKATLTADTSSSTAYMQLNSLTSEDSAIYYCTRYYGPYAMDYWGQGTSVTVSS
VL: DIVMSQSPSSLPVSVGEKVTMSCKSSQSLLYNSNQKNYLAWYQQIPGQSPKLLIYWASTGESGVPDRFTGSGSGTDFTLTISSVKAEDLAVYYCQQYYSYPFTFGSGTKLEIK
notes: IgG4 chimeric antibody; also called 23O20-ch-HC / 23O20-ch-LC
- EC50 [8]: 0.00893 µg/mL
- EC50, luciferase reporter gene experiment (T cell activation) [5]: 0.104 µg/mL

Results, then the binder that gave them:

- EC50, luciferase reporter gene experiment (T cell activation) [5]: 0.109 µg/mL
- EC50 [6]: 0.0086 µg/mL
B2: humanized antibody hu62 (antibody, V domains shown)
VH: B3 VH with R85S, D89E
VL: DIQMTQSPSSLSASVGDRVTITCRSSQSLLYNSNQKNYLAWYQQKPGKAPKLLIYWASTGESGVPSRFSGSGSGTDFTLTISSLQPEDFATYYCQQYYSYPFTFGQGTKVEIK
notes: as for B3

- RLU fold change, NFAT-luciferase reporter (Jurkat hPD-1/hTIGIT + CHO hPD-L1/hPVRL2), with JS001 [7]: 3.3 fold
- RLU fold change, NFAT-luciferase reporter, antibody alone [7]: 6.3 fold
B5: hybridoma antibody 2O18 (antibody, V domains shown)
VH: B6 VH
VL: B6 VL

- Kd (hTIGIT-Fc): 0.13 nM
- koff (hTIGIT-Fc): 0.000121 s⁻¹
- kon (hTIGIT-Fc): 935000 M⁻¹ s⁻¹
- Kd (Cyno TIGIT-Fc): 1.42 nM
- koff (Cyno TIGIT-Fc): 0.0003 s⁻¹
- kon (Cyno TIGIT-Fc): 211000 M⁻¹ s⁻¹
- EC50, luciferase reporter gene experiment (T cell activation) [5]: 0.14 µg/mL
- EC50 [6]: 0.0232 µg/mL
- IC50 [9]: 0.0693 µg/mL
B7: humanized antibody hu3 (antibody, human IgG4 S228P, kappa, V domains shown)
VH: QVQLVQSGAEVKKPGASVKVSCKTSGYAFTEYTMHWVRQAPGQGLEWMGGINPNTGGTTYNQKFQGRVTLTVDKSSSTAYMELSRLRSDDTVVYYCAKLLRLMYYFDYWGQGTLVTVSS
VL: DIVMTQSPDSLAVSLGERATINCKASQDVRTAVAWYQQKPGQPPKLLIYSASYRYTGVPDRFSGSGSGTDFTLTISSLQAEDVAVYYCHQHYITPWTFGGGTKVEIKR
notes: Humanized from 2O18

- Kd (hTIGIT-Fc): 0.209 nM
- koff (hTIGIT-Fc): 0.000163 s⁻¹
- kon (hTIGIT-Fc): 777000 M⁻¹ s⁻¹
- Kd (Cyno TIGIT-Fc): 1.45 nM
- koff (Cyno TIGIT-Fc): 0.000329 s⁻¹
- kon (Cyno TIGIT-Fc): 226000 M⁻¹ s⁻¹
- EC50, luciferase reporter gene experiment (T cell activation) [5]: 0.0424 µg/mL
- EC50 [6]: 0.0378 µg/mL
- IC50 [9]: 0.0587 µg/mL
B8: humanized antibody hu20 (antibody, human IgG4 S228P, kappa, V domains shown)
VH: B7 VH with Q43K, R85S, D89E
VL: DIQMTQSPSSLSASVGDRVTITCQASQDVRTAVAWYQQKPGKAPKLLIYSASYRYTGVPSRFSGSGSGTDFTFTISSLQPEDIATYYCHQHYITPWTFGGGTKVEIKR
notes: Humanized from 2O18

- RLU fold change, NFAT-luciferase reporter, antibody alone [7]: 2.3 fold
- RLU fold change, NFAT-luciferase reporter, with JS001 [7]: 2.3 fold
B10: hybridoma antibody 23O20 (antibody, V domains shown)
VH: B9 VH
VL: B9 VL
